Tests used:
HLA-A*0201 [1] = molecular target: T1, HLA-A*0201 (Homo sapiens, UniProt P04439, D140Y/D185E/D98H/E176V/E277Q/G131W/G231S/I119V/I121R/I166T/I218V/L300P/L318F/N151K/N90K/P208A/P217A/Q86G/Q94H/R138H/R169H/T345S); experiment: survivin/MHC Class I-specific pentamer binding
Source text: (§1) FIGS. 4A, 4B and 4C provide a graphical representations of data from an analysis of HLA-A*0201 binding properties of survivin peptides. To obtain the data summarized in FIGS. 4A and 4B, survivin peptide epitopes were used in MHC class I peptide competitive displacement assays. IC50 represents the 50% inhibition concentration of survivin peptide required to displace a fluorescently labeled-known human MHC Class I ligand (HPV18-27). Positive control peptides (Flu & gp100) represent known immunogenic MHC class I ligands. Data represent mean fluorescence±S.E.M. of triplicate samples. FIG. 4C provides a graphical representation of data for specific HLA-A*0201 pentamer binding of wild type and altered survivin peptide epitopes.
(§2) As such, both peptides will bind H-2 Kb (the murine MHC class I counterpart) to a similar extent in mice. […] However, it is in administration to humans that the peptides of the invention are expected to display their enhanced potential, since the alteration of 57C to M alters the wild type peptide so that it contains a sequence that facilitates improved interaction with human MHC I. This is supported by the disparate MHC class I binding characteristics of the wild type and M57 peptides (FIG. 4A-C). As determined by competitive peptide binding assays, SVN53-67/M57 binds HLA-A*0201 approximately 12 fold stronger than the wild type SVN53-67 (FIG. 4A-B). […]

HLA-A*0201 [2] = molecular target: T1, HLA-A*0201; experiment: MHC class I peptide competitive displacement assay; details: displacement of labeled HPV18-27, FIG. 4A-B
Source text: as §1, §2

GL261 cells = experiment: intracranial survival study in GL261 murine glioma model; format: in vivo, C57BL/6 mice; details: peptide loaded DC vaccine, GL261-C57BL/6 glioma model, FIG. 6
Protocol: FIG. 6 provides a graphical representation of data obtained from intracranial survival studies in a GL261 murine model utilizing altered peptides based on survivin amino acids 53-67. The peptides were administered using peptide loaded dendritic cell (DC) vaccines or as Keyhole Limpet Hemocyanin (KLH) conjugates. To obtain the data presented in FIG. 6, mice were intracranially implanted with 1×10^5 GL261 cells and were treated with survivin peptide DC vaccines. C57BL/6 mice were immunized with SVN57-64 based altered peptides, or OVA258-265 peptide loaded DC2.4 cells as well as a direct subcutaneous injection of 100 ug SVN 53-67/M57-KLH peptide in Incomplete Freund's Adjuvant (IFA) plus 100 ug GM-CSF. Vaccinations began 4 days after tumor cell implantation and were repeated (boosted) every 7 days to simulate a therapeutic setting. Survival was plotted according to Kaplan-Meier methods. Long-term survivors were confirmed tumor-free by high field strength MRI.

H2-K^b = molecular target: T2, H2-K^b (Mus musculus, UniProt P01901); experiment: MHC class I peptide binding assay, upregulation of H2-K^b on RMA-S cells; format: cell-based, murine; details: 100 μM peptide at 37° C., FIG. 3
T2 construct: Upregulation of H2-K^b molecules on the surface of murine RMA-S cells; endogenous in cells; host or cells: murine RMA-S cells
T2 sequence (P01901 22-369): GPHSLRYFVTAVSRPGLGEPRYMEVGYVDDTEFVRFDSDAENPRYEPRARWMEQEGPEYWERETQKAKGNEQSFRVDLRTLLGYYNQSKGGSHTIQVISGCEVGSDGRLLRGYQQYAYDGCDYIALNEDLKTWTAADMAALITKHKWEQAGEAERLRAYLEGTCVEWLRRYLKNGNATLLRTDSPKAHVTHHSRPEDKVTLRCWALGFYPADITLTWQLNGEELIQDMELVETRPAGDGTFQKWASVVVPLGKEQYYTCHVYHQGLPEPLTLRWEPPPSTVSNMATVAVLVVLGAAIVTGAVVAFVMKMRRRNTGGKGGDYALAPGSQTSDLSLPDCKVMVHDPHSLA
T2 sequence (P01887 21-119 partner): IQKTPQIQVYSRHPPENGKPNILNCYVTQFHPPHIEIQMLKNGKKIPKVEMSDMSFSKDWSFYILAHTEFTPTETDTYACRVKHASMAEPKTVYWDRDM
Protocol: To obtain the data presented in FIG. 3, survivin peptide epitopes were used in conventional MHC class I peptide binding assays. Mean fluorescence in FIG. 3 represents binding of SVN peptides to H2-K^b. Upregulation of H2-K^b molecules on the surface of murine RMA-S cells which are deficient in the expression of surface MHC class I molecules was used to determine actual survivin peptide binding in vitro. Data presented in FIG. 3 represent the binding of 100 μM peptide at 37° C.

“DLAQMFFCFKELEGW (SVN53-67/M57 with C to M change)” was tested, and the “increase of MHC I binding relative to the wild type sequence” value (HLA-A*0201 [1]; in situ binding assays for HLA-A*0201, FIG. 2 and FIG. 4C) was “approximately 73 fold” and the “HLA-A*0201 binding relative to wild type SVN53-67” value (HLA-A*0201 [2]) was “approximately 12 fold”.
“M F F C F K E L (MFFCFKEL; SVN-57-64/M57 mutant peptide)” was tested, and the “survival compared to wild type peptide” value (GL261 cells) was “enhances survival over the wild type peptide”.
“SVN56-64/M57: core peptide, survivin 56-64 with the C>M alteration at position 57 (QMFFCFKEL)” was tested, and the “HLA-A*0201 binding relative to wild type SVN56-64” value (HLA-A*0201 [1]; pentamer, FIG. 4C) was “approximately 73 fold”.
In the case of T L G E F L K L [SVN-97], the “binding of SVN peptides to H2-K^b (mean fluorescence)” value (H2-K^b) is reported as “less than SVN 57-64 wt, and considerably less than SVN 57-64/M57”.

Source: US8580269B2, “Survivin peptides for autoimmune therapies” (Health Research, Inc., priority 2007, dated 2013)
